Laboratory results: publication PMC9668993, “CBP-HSF2 structural and functional interplay in Rubinstein-Taybi neurodevelopmental disorder” (Nature Communications, 2022)

Target: T1, CBP-Full-HAT, full-catalytic domain of murine CBP (1096-1700), 6 His-tagged (murine, UniProt P45481 1096-1700)
T1 construct: also called CBP core catalytic domain; source: recombinant, purified
T1 sequence (looked up): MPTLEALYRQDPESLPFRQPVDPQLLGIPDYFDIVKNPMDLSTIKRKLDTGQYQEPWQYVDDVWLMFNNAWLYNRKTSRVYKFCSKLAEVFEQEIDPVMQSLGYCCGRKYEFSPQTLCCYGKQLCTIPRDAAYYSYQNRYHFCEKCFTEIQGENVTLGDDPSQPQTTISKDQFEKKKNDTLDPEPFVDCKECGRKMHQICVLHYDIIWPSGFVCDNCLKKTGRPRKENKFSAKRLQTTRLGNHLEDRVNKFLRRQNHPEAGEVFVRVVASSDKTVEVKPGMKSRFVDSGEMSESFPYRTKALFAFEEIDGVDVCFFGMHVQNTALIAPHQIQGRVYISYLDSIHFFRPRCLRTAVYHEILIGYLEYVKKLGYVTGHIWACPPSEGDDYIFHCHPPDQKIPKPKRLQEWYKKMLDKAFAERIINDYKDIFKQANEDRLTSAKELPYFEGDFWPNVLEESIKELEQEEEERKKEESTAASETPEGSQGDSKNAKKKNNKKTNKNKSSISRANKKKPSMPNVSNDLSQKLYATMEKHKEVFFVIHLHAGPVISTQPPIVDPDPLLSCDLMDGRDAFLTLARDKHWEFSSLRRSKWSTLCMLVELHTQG
Assay: BLI; Octet Red; biotinylated recombinant HSF2 immobilised at 100 nM on streptavidin biosensors in PBS; analytes diluted in PBS at 100 nM, association 600 s; Kd with a 1:1 stoichiometry model, global fit with Rmax unlinked by sensor
Details: both partners purified

B1: biotinylated recombinant full-length HSF2 (recHSF2) (natural protein, UniProt Q03933 1-536, looked up)
chain: MKQSSNVPAFLSKLWTLVEETHTNEFITWSQNGQSFLVLDEQRFAKEILPKYFKHNNMASFVRQLNMYGFRKVVHIDSGIVKQERDGPVEFQHPYFKQGQDDLLENIKRKVSSSKPEENKIRQEDLTKIISSAQKVQIKQETIESRLSELKSENESLWKEVSELRAKHAQQQQVIRKIVQFIVTLVQNNQLVSLKRKRPLLLNTNGAQKKNLFQHIVKEPTDNHHHKVPHSRTEGLKPRERISDDIIIYDVTDDNADEENIPVIPETNEDVISDPSNCSQYPDIVIVEDDNEDEYAPVIQSGEQNEPARESLSSGSDGSSPLMSSAVQLNGSSSLTSEDPVTMMDSILNDNINLLGKVELLDYLDSIDCSLEDFQAMLSGRQFSIDPDLLVDLFTSSVQMNPTDYINNTKSENKGLETTKNNVVQPVSEEGRKSKSKPDKQLIQYTAFPLLAFLDGNPASSVEQASTTASSEVLSSVDKPIEVDELLDSSLDPEPTQSKLVRLEPLTEAEASEATLFYLCELAPAPLDSDMPLLDS
modifications: biotinylated with EZ-Link NHS-PEG4-Biotin at a molar ratio biotin/protein (3:1)
notes: heat-shock factor 2, recombinant full-length protein, catalogue TP310751; also called recombinant HSF2; source: bought: Origen (TP310751)
  Kd: 1 nM
